According to the supplement of paper PMC11780869:

The sequences below were run on Bacillus subtilis (assay: cleaved RNA product abundance (RNA/gDNA barcode ratio) relative to median wild-type variant (ratio to wild type); higher = more accumulation of the downstream cleavage product). Conditions: experiment (reporter, strain, medium): exp 8a: truncated aprE reporter, strain BJT201 with 2% xylose (RNase J1 expressed); cleavage site: glnRA (positions -5 to +31 mutated).
Method in brief: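 Reporter mRNAs based on truncated aprE or tetM carried barcoded, mutagenized RNase Y cleavage-site windows built from oligos with a 9% error rate and were integrated into the B. subtilis chromosome. Cultures grew in LB at 37°C from OD600 0.0003 to 0.3. Cleaved RNA was gel-selected, reverse transcribed and barcode-sequenced together with genomic DNA barcodes, and UMIs were collapsed. Cleaved product abundance is the per-construct ratio of RNA to gDNA barcodes, scaled to the median of constructs carrying the unmutated site.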

| Sequence | cleaved RNA product abundance |
| --- | --- |
| CGACATGTCCCGCTTCTTTCATTAATCCGTTATCAACTGTTTTGCTATATACAATTACCTTTTAAGAGGAGGAAT | 0.276 |
| CGACATGTCCCGCTTCTTTCATTAATCCGTTATCAACTGTTTTGCTATATACAGTTACCTTTTAAGAGGAGGAAT | 0.286 |
| CGACATGTCCCGCTTCTTTCATTAATCCGTTATCAACTGTTTTGCTATATACATATACCTTTTAAGAGGAGGAAT | 0.348 |
| CGACATGTCCCGCTTCTTTCATTAATCCGTTATCAACTGTTTTGCTATATACATTAACCTTTTAAGAGGAGGAAT | 0.283 |
| CGACATGTCCCGCTTCTTTCATTAATCCGTTATCAACTGTTTTGCTATATACATTCACCTTTTAAGAGGAGGAAT | 0.214 |
| CGACATGTCCCGCTTCTTTCATTAATCCGTTATCAACTGTTTTGCTATATACATTGACCTTTTAAGAGGAGGAAT | 0.253 |
| CGACATGTCCCGCTTCTTTCATTAATCCGTTATCAACTGTTTTGCTATATACATTTAACTTTTAAGAGGAGGAAT | 0.291 |
| CGACATGTCCCGCTTCTTTCATTAATCCGTTATCAACTGTTTTGCTATATACATTTACATTTTAAGAGGAGGAAT | 0.366 |
| CGACATGTCCCGCTTCTTTCATTAATCCGTTATCAACTGTTTTGCTATATACATTTACCATTTAAGAGGAGGAAT | 0.269 |
| CGACATGTCCCGCTTCTTTCATTAATCCGTTATCAACTGTTTTGCTATATACATTTACCTTTTAAGAGGAGGAAT | 0.298 |
| CGACATGTCCCGCTTCTTTCATTAATCCGTTATCAACTGTTTTGCTATATACATTTACGTTTTAAGAGGAGGAAT | 0.376 |
| CGACATGTCCCGCTTCTTTCATTAATCCGTTATCAACTGTTTTGCTATATACATTTATCTTTTAAGAGGAGGAAT | 0.347 |
| CGACATGTCCCGCTTCTTTCATTAATCCGTTATCAACTGTTTTGCTATATACATTTCCCTTTTAAGAGGAGGAAT | 0.124 |
| CGACATGTCCCGCTTCTTTCATTAATCCGTTATCAACTGTTTTGCTATATACATTTGCCTTTTAAGAGGAGGAAT | 0.223 |
| CGACATGTCCCGCTTCTTTCATTAATCCGTTATCAACTGTTTTGCTATATACATTTTCCTTTTAAGAGGAGGAAT | 0.122 |
| CGACATGTCCCGCTTCTTTCATTAATCCGTTATCAACTGTTTTGCTATATACTTTTACCTTTTAAGAGGAGGAAT | 0.295 |
| CGACATGTCCCGCTTCTTTCATTAATCCGTTATCAACTGTTTTGCTATATAGATTTACCTTTTAAGAGGAGGAAT | 0.418 |
| CGACATGTCCCGCTTCTTTCATTAATCCGTTATCAACTGTTTTGCTATATATATTTACCTTTTAAGAGGAGGAAT | 0.288 |
| CGACATGTCCCGCTTCTTTCATTAATCCGTTATCAACTGTTTTGCTATATCCATTTACCTTTTAAGAGGAGGAAT | 0.136 |
| CGACATGTCCCGCTTCTTTCATTAATCCGTTATCAACTGTTTTGCTATATGCATTTACCTTTTAAGAGGAGGAAT | 0.135 |
| CGACATGTCCCGCTTCTTTCATTAATCCGTTATCAACTGTTTTGCTATATTCATTTACCTTTTAAGAGGAGGAAT | 0.246 |

| Sequence | cleaved RNA product abundance |
| --- | --- |
| CGACATGTCCCGCTTCTTTCATTAATCCGTTATCAACTGTTTTGCTATTTACATTTACCTTTTAAGAGGAGGAAT | 0.111 |
| CGACATGTCCCGCTTCTTTCATTAATCCGTTATCAACTGTTTTGCTGTATACATTTACCTTTTAAGAGGAGGAAT | 0.192 |
| CGACATGTCCCGCTTCTTTCATTAATCCGTTATCAACTGTTTTGCTTTATACATTTACCTTTTAAGAGGAGGAAT | 0.202 |
| CGACATGTCCCGCTTCTTTCATTAATCCGTTATCAACTGTTTTGTTATATACATTTACCTTTTAAGAGGAGGAAT | 0.272 |
| CGACATGTCCCGCTTCTTTCATTAATCCGTTATCAACTGTTTTTCTATATACATTTACCTTTTAAGAGGAGGAAT | 0.393 |
| CGACATGTCCCGCTTCTTTCATTAATCCGTTATCAACTTTTTTGCTATATACATTTACCTTTTAAGAGGAGGAAT | 0.387 |
| CGACATGTCCCGCTTCTTTCATTAATCCGTTATCAAGTGTTTTGCTATATACATTTACCTTTTAAGAGGAGGAAT | 0.202 |
| CGACATGTCCCGCTTCTTTCATTAATCCGTTATCAATTGTTTTGCTATATACATTTACCTTTTAAGAGGAGGAAT | 0.199 |
| CGACATGTCCCGCTTCTTTCATTAATCCGTTATCACCTGTTTTGCTATATACATTTACCTTTTAAGAGGAGGAAT | 0.198 |
| CGACATGTCCCGCTTCTTTCATTAATCCGTTATCATCTGTTTTGCTATATACATTTACCTTTTAAGAGGAGGAAT | 0.267 |
| CGACATGTCCCGCTTCTTTCATTAATCCGTTATCGACTGTTTTGCTATATACATTTACCTTTTAAGAGGAGGAAT | 0.257 |
| CGACATGTCCCGCTTCTTTCATTAATCCGTTATGAACTGTTTTGCTATATACATTTACCTTTTAAGAGGAGGAAT | 0.252 |
| CGACATGTCCCGCTTCTTTCATTAATCCGTTATTAACTGTTTTACTATATACATTTACCTTTTAAGAGGAGGAAT | 0.408 |
| CGACATGTCCCGCTTCTTTCATTAATCCGTTATTAACTGTTTTGCTATATACATTTACCTTTTAAGAGGAGGAAT | 0.337 |
| CGACATGTCCCGCTTCTTTCATTAATCCGTTCACAACTGTTTTGCTATATACATTTACCTTTTAAGAGGAGGAAT | 0.224 |
| CGACATGTCCCGCTTCTTTCATTAATCCGTTCCCAACTGTTTTGCTATATACATTTACCTTTTAAGAGGAGGAAT | 0.392 |
| CGACATGTCCCGCTTCTTTCATTAATCCGTTCGAAACTGTTTTGCTATATACATTTACCTTTTAAGAGGAGGAAT | 0.347 |
| CGACATGTCCCGCTTCTTTCATTAATCCGTTCGCAACAGTTTTGCTATATACATTTACCTTTTAAGAGGAGGAAT | 0.419 |
| CGACATGTCCCGCTTCTTTCATTAATCCGTTCGCAACTGTTATGCTATATACATTTACCTTTTAAGAGGAGGAAT | 0.349 |
| CGACATGTCCCGCTTCTTTCATTAATCCGTTCGCAACTGTTTTACTATATACATTTACCTTTTAAGAGGAGGAAT | 0.418 |
| CGACATGTCCCGCTTCTTTCATTAATCCGTTCGCAACTGTTTTGATATATACATTTACCTTTTAAGAGGAGGAAT | 0.334 |

| Sequence | cleaved RNA product abundance |
| --- | --- |
| CGACATGTCCCGCTTCTTTCATTAATCCGTTCGCAACTGTTTTGCTATAAACATTTACCTTTTAAGAGGAGGAAT | 0.122 |
| CGACATGTCCCGCTTCTTTCATTAATCCGTTCGCAACTGTTTTGCTATATACATTTACCTTTTAAGAGGAGGAAT | 0.345 |
| CGACATGTCCCGCTTCTTTCATTAATCCGTTCGCAACTGTTTTGCTATATACATTTACGTTTTAAGAGGAGGAAT | 0.342 |
| CGACATGTCCCGCTTCTTTCATTAATCCGTTCGCAACTGTTTTGCTATATATATTTACCTTTTAAGAGGAGGAAT | 0.324 |
| CGACATGTCCCGCTTCTTTCATTAATCCGTTCGCAACTGTTTTGTTATATACATTTACCTTTTAAGAGGAGGAAT | 0.411 |
| CGACATGTCCCGCTTCTTTCATTAATCCGTTCGCAACTTTTTTGCTATATACATTTACCTTTTAAGAGGAGGAAT | 0.381 |
| CGACATGTCCCGCTTCTTTCATTAATCCGTTCGCAATTGTTTTGCTATATACATTTACCTTTTAAGAGGAGGAAT | 0.31 |
| CGACATGTCCCGCTTCTTTCATTAATCCGTTGCCAACTGTTTTGCTATATACATTTACCTTTTAAGAGGAGGAAT | 0.264 |
| CGACATGTCCCGCTTCTTTCATTAATCCGTTGGCAACTATTTTGCTATATACATTTACCTTTTAAGAGGAGGAAT | 0.866 |
| CGACATGTCCCGCTTCTTTCATTAATCCGTTGGCAACTGATTTGCTATATACATTTACCTTTTAAGAGGAGGAAT | 0.729 |
| CGACATGTCCCGCTTCTTTCATTAATCCGTTGGCAACTGTTTAGCTATATACATTTACCTTTTAAGAGGAGGAAT | 0.38 |
| CGACATGTCCCGCTTCTTTCATTAATCCGTTGGCAACTGTTTTGCTATAAACATTTACCTTTTAAGAGGAGGAAT | 0.509 |
| CGACATGTCCCGCTTCTTTCATTAATCCGTTGGCAACTGTTTTGCTATATACATTTACCTTTTAAGAGGAGGAAT | 0.739 |
| CGACATGTCCCGCTTCTTTCATTAATCCGTTGGCAACTGTTTTGCTATATACATTTACTTTTTAAGAGGAGGAAT | 0.61 |
| CGACATGTCCCGCTTCTTTCATTAATCCGTTGGCAACTGTTTTGCTATGTACATTTACCTTTTAAGAGGAGGAAT | 0.1 |
| CGACATGTCCCGCTTCTTTCATTAATCCGTTGGCAATTGTTTTGCTATATACATTTACCTTTTAAGAGGAGGAAT | 1.12 |
| CGACATGTCCCGCTTCTTTCATTAATCCGTTTACAACTGTTTTGCTATATACATTTACCTTTTAAGAGGAGGAAT | 0.276 |
| CGACATGTCCCGCTTCTTTCATTAATCCGTTTGAAACTGTTTTGCTATATACATTTACCTTTTAAGAGGAGGAAT | 0.388 |
| CGACATGTCCCGCTTCTTTCATTAATCCGTTTGCAAATGTTTTGCTATATACATTTACCTTTTAAGAGGAGGAAT | 0.446 |
